Test: soluble on expression in E. coli; label from the status in PepcDB or PDB records

With “MSELEKTFGIKVSPGAIYPILSSLRKSGLIEVAREGKREKKLYRITEKGEEYLKKHEDEVEEALEIANKLKEFSELGGREVAQVLREVIENIDKLSEEQKTALAREFSEFVKRIKIILLGGE” as the sequence, how does the “soluble on expression in E. coli” value read?
The value was “soluble”.

For “MKDRELLAKSITTKDAVSDGRESPSLLSDKLSRLPWSTLYASVFCAGVLLLPFSGQAVEPPVAAKASENKNQLKTLQQDIAEKEKSVQQQKKQRSSLLDQLKQQENTISQTSRSLRETQAALAELSKDIASLTTSIEKLQNQQSQQQSILSKQLAAAFKQGKHSSLQLILSGEESQRSERILAYFSYLNEARQKAIEELKQTRTTLSAEKKMLEQKQNQHKALLDEQKAQQQKLEQARIARQKTLTSLEASLEKDQQSLAELKLNESRLRDQIAKAEREAKARAEREAKEAARVREQVKVKEQQAKKTGSSYKPSESERSLMARTGGLGRPGGQALWPVRGNVSHRFGEPLQGELRWKGMVITAPEGSEVKAIADGRVLLADWLQGYGLVVVIEHGKGDMSLYGYNQSALVNVGAQVKAGQPIALVGTSGGQGEPSLYFEIRRQGQAVNPQPWLGR”, which “soluble on expression in E. coli” value is on record?
The value was “not soluble”.

For “MSLKVIICGAGQVGYGIAEQLSREDNEVSVIDTAAPLITAITETLDVRGYVGHGAHPDMLAKAGADQADMIIAVTLHDEINIVACEVAHALFSVPTKIARIRDQSYMKPEYADLFSRENMSIDVTISPEVEVGKMVLRRIAFPGATDVVRFAEDTIYMLAIECMEDCPVINTPLQQLSSLFPDLIATVVGVYRDGILKVAHSSEQLRVGDLAYVICQRQHARRTLSLFGHEEQEGHHHHHH”, which “soluble on expression in E. coli” value is on record?
Its value is “not soluble”.

With “MSLGPILVASEDYGRRVELSAMLRGFGYRVIEAENGLRTIDLLHRRKNIVLALLDVVMSDLSVGDLIKMIRVAGVAVPIVVIAQQENQELLQKALTAGAIDYWIHPVTLLRLRVTLDTLALISALEREVHYIRRKKENHLRFSDLSIKSRAMQIVLEQSKRAASSLQNLLIEGEVGTGRETLARIIHHEGLLSEGDFIRFQCLAIVDPEEENHQWFKEFIPLVSSLEKGTLCLCDVDRLEPIQQKRFMHYLKEREKATKDKVFPFRIIAISTSRLSDLVKEGFFLHSLFEQFSQLSISVPALRELRDDFPDLTQRLIDRIITETGRSHVHGLAGSALSLLMQYDWPGNRNGLENFLFRAILLSDGPLLTVRDFPQLMGNSLMNVPKIIESNMQEDHEQESVKFLDVDGHVRTFAEMERDIIEKAFKHYKGHMSEIARRLRIGRSTLYRKIEGLRAISSQEGHHHHHH” as the sequence, how does the “soluble on expression in E. coli” value read?
Its value is “soluble”.

Which “soluble on expression in E. coli” value does the source give for “MEDDDSPSSRDLDAQNPYDRLLALDTSTVDPNCNLDSVSAIYLAMKSSKLECVDERGQDSLITSVCMEDEEDEELDEFDPYLFIKNLPNLSSVVPTFRPVLLPKQTRSCPPISLVLDLDETLVHSTLEPCGEVDFTFPVNFNEEEHMVYVRCRPHLKEFMERVSRLFEIIIFTASQSIYAEQLLNVLDPKRKLFRHRVYRDSCVFFDGNYLKDLSVLGRDLSRVIIVDNSPQAFGFQVENGVPIESWFNDPSDKELLHLLPFLESLIGVEDVRPMIAKKFNLREKIDAAVAAPEYPAEAGDPFER” here?
The value was “soluble”.

With “MGSDKIHHHHHHMAEIDFIGRYHNATKRDYVQRVVEYDKAECAATAKQWGFDYWDGDRRHGFGGMRYDGRWLPLAEDLVRHYGLKAGDKVLDIGCGKAFLLYEMTRACPGLTVAGLDISEYGINNAKEEVRPFLTLGNATRLPWPDRHFDLVISINTFHNLQIHELDQAVREMQRVSTGRGYICVESYRDESEKANLLYWQLTCESFHRPEGWRWVYDQAGYTGDHGFIYFQ” as the sequence, how does the “soluble on expression in E. coli” value read?
The value was “not soluble”.

Which “soluble on expression in E. coli” value does the source give for “GITPKYTATAKVYMVSASKNSVVDLADLSIGTSLSEDYAELLHVRPIIEAINEENDLGYTYEQLNGMIDISTVEDTRILKISATSIKPEEAKTIANALAEKAVTEIPKLMGTSSPNIAERAITPKGKSSPSLKKN” here?
The value was “soluble”.

With “MGSSHHHHHHSSGLVPRGSHMSRAYDLVVLGAGSGGLEAGWNAAVTHKKKVAVVDVQATHGPPLFAALGGTCVNVGCVPKKLMVTGAQYMDLIRESGGFGWEMDRESLCPNWKTLIAAKNKVVNSINESYKSMFADTEGLSFHMGFGALQDAHTVVVRKSEDPHSDVLETLDTEYILIATGSWPTRLGVPGDEFCITSNEAFYLEDAPKRMLCVGGGYIAVEFAGIFNGYKPCGGYVDLCYRGDLILRGFDTEVRKSLTKQLGANGIRVRTNLNPTKITKNEDGSNHVHFNDGTEEDYDQVMLAIGRVPRSQALQLDKAGVRTGKNGAVQVDAYSKTSVDNIYAIGDVTNRVMLTPVAINEGAAFVETVFGGKPRATDHTKVACAVFSIPPIGTCGMTEEEAAKNYETVAVYASSFTPLMHNISGSKHKEFMIRIITNESNGEVLGVHMLGDSAPEIIQSVGICMKMGAKISDFHSTIGVHPTSAEELCSMRTPAYFYESGKRVEKLSSNL” as the sequence, how does the “soluble on expression in E. coli” value read?
Its value is “soluble”.
